Measured values reported in patent US20230203170A1 (DRAGONBOAT BIOPHARMACEUTICAL SHANGHAI, published 2023).

T1: full-length mouse CSF-1R (RefSeq ID NP_001032948) expressed on HEK293F cells (mouse, UniProt P09581 20-977)
T1 construct: whole, on cells
T1 sequence (looked up): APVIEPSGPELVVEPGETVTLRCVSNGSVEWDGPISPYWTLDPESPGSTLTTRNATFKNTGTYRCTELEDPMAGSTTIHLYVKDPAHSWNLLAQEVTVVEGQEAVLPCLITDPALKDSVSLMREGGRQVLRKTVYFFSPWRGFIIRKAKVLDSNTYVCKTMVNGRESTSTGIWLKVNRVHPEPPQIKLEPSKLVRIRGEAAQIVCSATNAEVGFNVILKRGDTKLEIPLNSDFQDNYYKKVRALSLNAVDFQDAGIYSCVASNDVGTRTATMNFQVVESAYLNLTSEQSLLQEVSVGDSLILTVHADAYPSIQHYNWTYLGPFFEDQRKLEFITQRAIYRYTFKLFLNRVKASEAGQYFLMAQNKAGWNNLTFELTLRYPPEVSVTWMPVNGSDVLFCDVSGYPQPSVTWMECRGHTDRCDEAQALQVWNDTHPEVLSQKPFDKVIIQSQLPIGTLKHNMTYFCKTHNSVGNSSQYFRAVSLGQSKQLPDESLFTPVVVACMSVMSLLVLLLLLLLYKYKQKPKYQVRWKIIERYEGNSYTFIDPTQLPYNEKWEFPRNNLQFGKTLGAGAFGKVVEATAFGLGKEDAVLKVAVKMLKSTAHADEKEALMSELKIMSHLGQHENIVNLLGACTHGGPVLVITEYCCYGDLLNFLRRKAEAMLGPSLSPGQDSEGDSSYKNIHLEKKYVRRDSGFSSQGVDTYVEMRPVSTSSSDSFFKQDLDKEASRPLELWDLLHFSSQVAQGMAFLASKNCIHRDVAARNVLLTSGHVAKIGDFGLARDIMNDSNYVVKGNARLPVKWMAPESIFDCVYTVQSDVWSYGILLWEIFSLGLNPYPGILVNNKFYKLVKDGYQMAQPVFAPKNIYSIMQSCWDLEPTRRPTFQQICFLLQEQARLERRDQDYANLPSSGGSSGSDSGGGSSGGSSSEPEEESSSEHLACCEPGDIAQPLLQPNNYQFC


Experiments:
[1] = biological target: T2, human CSF1R-His (Acrobiosystem, CSR-H5228) (human, UniProt P07333 20-512, limits assumed); experiment: SPR Biacore T200; IgG captured by anti-human Fc, CSF1R-His as analyte, 1:1 fit
T2 construct: Bought protein; The catalogue number is printed only for the SPR assay; also called human CSF-1R protein; not shown: His tag
Text: The specific binding affinity and kinetics of antibodies against human CSF-1R protein were examined by surface plasmon resonance (SPR) analysis using a Biacore™ T200 instrument (GE, USA) according to the manufacturer’s guidelines. Anti-Human IgG (Fc) antibody (Sigma, I2136) was immobilized on CM5 chips according to the instructions of Amine Coupling kit (GE Biacore #BR-1000-50). The immobilized Anti-Human IgG (Fc) antibody was used to capture the antibodies. […] The running buffer used was 0.01 M HEPES, 0.15 M NaCl, 3 mM EDTA, 0.05% (v/v) surfactant P20, pH 7.4. Corresponding controls were conducted in each case using a blank flow cell with no protein captured for “background” subtraction. The association and dissociation curves were fitted to a 1:1 Langmuir binding model using Biacore T200 Evaluation Software (GE, USA) according to the manufacturer’s guidelines.

[2] = biological target: T1, full-length mouse CSF-1R (RefSeq ID …); experiment: flow cytometry on HEK293F cells transiently expressing full-length mouse CSF-1R (IRES-EGFP vector), Alexa Fluor 647 anti-human Fc detection [Conti.]
Description: (§1) The specificities of the antibodies were also assessed against human, monkey and mouse CSF-1R that are transiently expressed on the surface of HEK293F cells (FIG. 1). Briefly, HEK293F cells were transfected with a plasmid expressing full-length human, monkey (RefSeq ID XP_015307616) or mouse (RefSeq ID NP_001032948) CSF-1R from a bicistronic IRES vector. EGFP was used to identify the transfected cells. After 40 hrs, the transfected cells were harvested and then washed once with 1% PBSA buffer (1% (w/v) BSA in 1×PBS). Cells were then incubated with various IgGs (each at 100 nM) for 1 hr at room temperature, washed once with pre-chilled 1% PBSA buffer, and incubated with Alexa Fluor® 647 conjugated mouse anti-human Fc antibodies for 30 min on ice. The cells were washed once prior to analysis by flow cytometry (Beckman® CytoFlex).

[3] = biological target: T1, full-length mouse CSF-1R (RefSeq ID …); experiment: flow cytometry on HEK293F cells transiently expressing full-length mouse CSF-1R (IRES-EGFP vector), Alexa Fluor 647 anti-human Fc detection
Description: as §1

[4] = biological target: T3, full-length human CSF-1R expressed on cells (human, UniProt P07333 20-972); experiment: flow cytometry on HEK293F cells transiently expressing full-length human CSF-1R (IRES-EGFP vector), IgG at 100 nM, Alexa Fluor 647 anti-human Fc detection
T3 construct: whole, on cells
Description: as §1

[5] = biological target: T1, full-length mouse CSF-1R (RefSeq ID …); experiment: flow cytometry on HEK293F cells transiently expressing full-length mouse CSF-1R (IRES-EGFP vector), IgG at 100 nM, Alexa Fluor 647 anti-human Fc detection
Description: as §1

[6] = biological target: T4, full-length monkey CSF-1R (RefSeq ID XP_015307616) expressed on HEK293F cells (monkey, UniProt A0A2K5WG90 20-976); experiment: flow cytometry on HEK293F cells transiently expressing full-length monkey CSF-1R (IRES-EGFP vector), IgG at 100 nM, Alexa Fluor 647 anti-human Fc detection
T4 sequence (A0A2K5WG90 entry or part of it limits assumed, form in doubt): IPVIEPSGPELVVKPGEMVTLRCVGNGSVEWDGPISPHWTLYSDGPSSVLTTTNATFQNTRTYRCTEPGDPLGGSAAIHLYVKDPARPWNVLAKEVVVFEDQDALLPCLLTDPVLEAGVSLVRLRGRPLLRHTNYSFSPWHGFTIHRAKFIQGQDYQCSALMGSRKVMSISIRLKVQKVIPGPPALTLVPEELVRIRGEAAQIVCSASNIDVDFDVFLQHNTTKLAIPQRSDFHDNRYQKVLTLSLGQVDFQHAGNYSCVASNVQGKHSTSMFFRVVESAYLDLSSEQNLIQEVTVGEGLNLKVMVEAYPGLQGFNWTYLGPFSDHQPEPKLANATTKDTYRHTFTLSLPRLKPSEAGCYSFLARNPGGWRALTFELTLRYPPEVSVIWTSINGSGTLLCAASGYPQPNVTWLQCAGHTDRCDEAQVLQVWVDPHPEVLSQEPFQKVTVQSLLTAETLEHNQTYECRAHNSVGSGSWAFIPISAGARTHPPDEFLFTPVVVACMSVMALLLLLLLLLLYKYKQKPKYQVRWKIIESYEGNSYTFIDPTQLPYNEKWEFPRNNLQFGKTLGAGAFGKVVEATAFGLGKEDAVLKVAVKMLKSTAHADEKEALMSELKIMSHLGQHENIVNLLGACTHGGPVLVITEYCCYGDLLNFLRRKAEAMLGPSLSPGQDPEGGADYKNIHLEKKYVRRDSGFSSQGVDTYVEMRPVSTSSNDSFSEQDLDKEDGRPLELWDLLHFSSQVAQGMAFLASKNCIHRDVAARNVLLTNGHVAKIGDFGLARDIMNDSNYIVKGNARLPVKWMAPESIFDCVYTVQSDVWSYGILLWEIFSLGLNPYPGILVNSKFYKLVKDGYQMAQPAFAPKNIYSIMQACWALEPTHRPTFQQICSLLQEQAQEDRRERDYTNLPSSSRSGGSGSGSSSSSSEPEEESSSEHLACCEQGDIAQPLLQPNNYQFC
Description: as §1

[7] = biological target: T3, full-length human CSF-1R expressed on …; experiment: flow cytometry on HEK293F cells transiently expressing full-length human CSF-1R (IRES-EGFP vector), IgG at 100 nM, Alexa Fluor 647 anti-human Fc detection [Conti.]
Description: as §1

[8] = biological target: T4, full-length monkey CSF-1R (RefSeq ID …); experiment: flow cytometry on HEK293F cells transiently expressing full-length monkey CSF-1R (IRES-EGFP vector), IgG at 100 nM, Alexa Fluor 647 anti-human Fc detection [Conti.]
Description: as §1

Binder	Kd [1] [nM]	binding result [2]	binding result [3]	percent of cells in the upper right quadrant (APC Ab binding positive, FITC Ag display positive) [4] [%]	percent of cells in the upper right quadrant (APC Ab binding positive, FITC Ag display positive) [5] [%]	percent of cells in the upper right quadrant (APC Ab binding positive, FITC Ag display positive) [6] [%]	percent of cells in the upper right quadrant (APC Ab binding positive, FITC Ag display positive) [7] [%]	percent of cells in the upper right quadrant (APC Ab binding positive, FITC Ag display positive) [8] [%]
TAC2205 (antibody, human IgG4, V domains shown) VH: QVQLVQSGAEVKKPGSSVKVSCKASGYTFTDNYMIWVRQAPGQGLEWMGDINPYNGGTTFNQKFKGRVTITADKSTSTAYMELSSLRSEDTAVYYCARESPYFSNLYVMDYWGQGTLVTVSS VL: EIVLTQSPATLSLSPGERATLSCKASQSVDYDGDNYMNWYQQKPGQAPRLLIYAASNLESGIPARFSGSGSGTDFTLTISSLEPEDFAVYYCHLSNEDLSTFGGGTKVEIK	0.67	no binding (tested: 100 nM)	–	–	–	–	–	–
TY21375 (antibody, human IgG4, V domains shown, Human IgG4 isotype with S241P mutation) VH: EVQLVESGGGLVQPGGSLRLSCAASGFTFSDYAIHWVRQAPGKGLEWVSVISGYGGSTYYADSVKGRFTISRDNSKNTLYLQLNSLRAEDTAVYYCARSGGGGYYFDYWGQGTLVTVSS VL: DIQLTQSPSSLSASVGDRVTITCRASQGIRSYLAWYQQKPGKAPKLLIYAASSLQSGVPSRFSGSGSGTDFTLTISSLQPEDFATYYCQQSYHWPLTFGQGTKVEIK	35.5	–	no binding (tested: 100 nM)	43.8	0.081	32.6	–	–
TY21428 (antibody, human IgG4, V domains shown, Human IgG4 isotype with S241P mutation) VH: EVQLVESGGGLVQPGGSLRLSCAASGFTFSNYGIHWVRQAPGKGLEWVSVISGYGGSTYYADSVKGRFTISRDNSKNTLYLQLNSLRAEDTAVYYCARRGLTSTYFDYWGQGTLVTVSS VL: DIQLTQSPSSLSASVGDRVTITCRASQSVGSWLAWYQQKPGKAPKLLIYDASNLETGVPSRFSGSGSGTDFTLTISSLQPEDFATYYCQQSYPIPPTFGQGTKVEIK	9.86	no binding (tested: 100 nM)	–	–	–	–	41.3	31.3
TY21371 (antibody, V domains shown, Human IgG4 isotype with S241P mutation (Uniprot P01861); Its IgG1 format is called TY22179 (used only in PK/PD)) VH: EVQLVESGGGLVQPGGSLRLSCAASGFTFSGYAIHWVRQAPGKGLEWVSVISGYGSSTYYADSVKGRFTISRDNSKNTLYLQLNSLRAEDTAVYYCARDPGVGGFDVWGQGTLVTVSS VL: DIQLTQSPSSLSASVGDRVTITCRASQSVRRRFLAWYQQKPGKAPKLLIYDASSLESGVPSRFSGSGSGTDFTLTISSLQPEDFATYYCQQYYPIPRTFGQGTKVEIK	0.6	–	no binding (tested: 100 nM)	40.2	3.71	29.5	–	–
TY21372 (antibody, human IgG4, V domains shown, Human IgG4 isotype with S241P mutation) VH: EVQLVESGGGLVQPGGSLRLSCAASGYTFSDYAIHWVRQAPGKGLEWVSVISGYGSTTYYADSVKGRFTISRDNSKNTLYLQLNSLRAEDTAVYYCARASSYGGFDYWGQGTLVTVSS VL: DIQLTQSPSSLSASVGDRVTITCRASQDVSTAVAWYQQKPGKAPKLLIYDASNRATGIPSRFSGSGSGTDFTLTISSLQPEDFATYYCQQYYPWPWTFGQGTKVEIK	1.61	–	no binding (tested: 100 nM)	37.4	–	33.7	–	–
TY21433 (antibody, human IgG4, V domains shown, Human IgG4 isotype with S241P mutation) VH: EVQLVESGGGLVQPGGSLRLSCAASGFTFSNYAIHWVRQAPGKGLEWVSVISGYGSTTYYADSVKGRFTISRDNSKNTLYLQLNSLRAEDTAVYYCARSTVATPFAYWGQGTLVTVSS VL: DIQLTQSPSSLSASVGDRVTITCKASQDVRTAVAWYQQKPGKAPKLLIYAASTLQSGVPSRFSGSGSGTDFTLTISSLQPEDFATYYCQQSYPWPWTFGQGTKVEIK	3.51	no binding (tested: 100 nM)	–	–	–	–	–	–
TY21373 (antibody, human IgG4, V domains shown, Human IgG4 isotype with S241P mutation) VH: EVQLVESGGGLVQPGGSLRLSCAASGYSISSGYYWGWIRQAPGKGLEWVSSISGYGSSTYYADSVKGRFTISRDNSKNTLYLQLNSLRAEDTAVYYCARGAYGYFDYWGQGTLVTVSS VL: DIQLTQSPSSLSASVGDRVTITCPASSSVSYIHWYQQKPGKAPKLLIYDASNLETGVPSRFSGSGSGTDFTLTISSLQPEDFATYYCQQYYPWPWTFGQGTKVEIK	23.6	–	no binding (tested: 100 nM)	37.4	0.77	–	–	–
TY21429 (antibody, human IgG4, V domains shown, Human IgG4 isotype with S241P mutation) VH: EVQLVESGGGLVQPGGSLRLSCAASGYTFSNYAIHWVRQAPGKGLEWVSAISGTGSSTYYADSVKGRFTISRDNSKNTLYLQLNSLRAEDTAVYYCARHSHSRYAFDYWGQGTLVTVSS VL: DIQLTQSPSSLSASVGDRVTITCRASHVRTAVAWYQQKPGKAPKLLIYDASNLETGVPSRFSGSGSGTDFTLTISSLQPEDFATYYCQQYYPWPWTFGQGTKVEIK	3.18	no binding (tested: 100 nM)	–	–	–	–	–	34.2
TAC2188 (antibody, human IgG4, V domains shown) VH: QVQLVQSGAEVKKPGASVKVSCKASGYTFTSYDISWVRQAPGQGLEWMGVIWTDGGTNYAQKLQGRVTMTTDTSTSTAYMELRSLRSDDTAVYYCARDQRLYFDVWGQGTTVTVSS VL: DIQMTQSPSSLSASVGDRVTITCRASEDVNTYVSWYQQKPGKAPKLLIYAASNRYTGVPSRFSGSGSGTDFTLTISSLQPEDFATYYCQQSFSYPTFGQGTKLEIK	–	no binding (tested: 100 nM)	–	–	–	–	–	–
